The results in this text go back to article PMC8415317 (Genes & Development, 2021).

T1: PID-1-mVenus-Strep (C. elegans, UniProt Q19541 1-169)
T1 sequence (looked up): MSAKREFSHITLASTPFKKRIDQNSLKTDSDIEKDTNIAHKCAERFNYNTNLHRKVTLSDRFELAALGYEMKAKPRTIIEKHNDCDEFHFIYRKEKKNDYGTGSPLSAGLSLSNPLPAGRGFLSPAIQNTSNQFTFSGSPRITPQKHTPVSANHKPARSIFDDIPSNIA

T2: full-length TOST-1 (TOST-1^FL) (C. elegans, UniProt Q18490 1-142)
T2 sequence (looked up): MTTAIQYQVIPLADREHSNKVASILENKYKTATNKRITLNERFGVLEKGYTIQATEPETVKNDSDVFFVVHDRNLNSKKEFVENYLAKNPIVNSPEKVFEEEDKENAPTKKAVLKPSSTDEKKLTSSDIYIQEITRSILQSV

T3: ERH-2 I81A/R83A (C. elegans, UniProt Q20057 1-113, I81A | R83A)
T3 sequence (looked up): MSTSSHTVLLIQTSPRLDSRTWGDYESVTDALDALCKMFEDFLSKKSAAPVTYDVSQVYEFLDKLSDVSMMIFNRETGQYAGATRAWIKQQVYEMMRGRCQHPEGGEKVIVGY

T4: ERH-2 W87A (C. elegans, UniProt Q20057 1-113, W87A)
T4 sequence (looked up): T3 sequence (looked up) with A81I, A83R, W87A

T5: TOFU-6 RRM (Caenorhabditis elegans, UniProt Q09293 1-99)
T5 sequence: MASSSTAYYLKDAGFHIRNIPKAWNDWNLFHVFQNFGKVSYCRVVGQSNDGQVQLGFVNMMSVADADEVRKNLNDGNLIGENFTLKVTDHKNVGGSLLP

T6: TOFU-6 (C. elegans, UniProt Q09293 1-367)
T6 sequence (looked up): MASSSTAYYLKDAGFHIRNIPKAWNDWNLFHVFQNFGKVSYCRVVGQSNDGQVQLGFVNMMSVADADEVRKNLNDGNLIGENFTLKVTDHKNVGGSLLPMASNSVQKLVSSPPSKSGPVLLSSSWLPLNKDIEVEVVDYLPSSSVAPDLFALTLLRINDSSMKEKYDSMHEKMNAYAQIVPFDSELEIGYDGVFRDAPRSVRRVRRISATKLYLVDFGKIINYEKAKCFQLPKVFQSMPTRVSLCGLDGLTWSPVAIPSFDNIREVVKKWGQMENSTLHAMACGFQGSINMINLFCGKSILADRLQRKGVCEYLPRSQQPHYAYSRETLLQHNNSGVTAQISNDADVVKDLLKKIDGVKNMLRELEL

T7: PID-3/ERH-2 subcomplex (C. elegans, UniProt O76616 1-307; Q20057 1-113)
T7 sequence (looked up) 1: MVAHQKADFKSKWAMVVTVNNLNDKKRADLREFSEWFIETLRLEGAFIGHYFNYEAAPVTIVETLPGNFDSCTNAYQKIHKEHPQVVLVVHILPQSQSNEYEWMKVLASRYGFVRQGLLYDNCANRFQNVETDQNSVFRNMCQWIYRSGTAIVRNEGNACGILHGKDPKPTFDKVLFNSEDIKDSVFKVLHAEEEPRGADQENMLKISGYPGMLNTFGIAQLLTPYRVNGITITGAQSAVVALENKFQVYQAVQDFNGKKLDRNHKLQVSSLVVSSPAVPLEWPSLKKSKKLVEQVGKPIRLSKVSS
T7 sequence (looked up) 2: T3 sequence (looked up) with A81I, A83R

B1: full-length ERH-2^FL (natural protein, C. elegans, UniProt Q20057 1-113, looked up)
chain: T3 sequence (looked up) with A81I, A83R
B2: PID-3 full-length (natural protein, C. elegans, UniProt O76616 1-307, looked up)
chain: T7 sequence (looked up) 1
B3: PID-3 (I182A and V186A) (protein, UniProt O76616 1-307, looked up, variant I182A V186A)
Protein pid-3: T7 sequence (looked up) 1 with I182A, V186A
B4: PID-3(A220E) (protein, UniProt O76616 1-307, looked up, variant A220E)
Protein pid-3: T7 sequence (looked up) 1 with A220E
B5: TOST-1-mVenus-Strep (natural protein, C. elegans, UniProt Q18490 1-142, looked up)
chain: T2 sequence (looked up)
B6: ^15N-labeled full-length ERH-2 (natural protein, C. elegans)
chain: GHMASMSTSSHTVLLIQTSPRLDSRTWGDYESVTDALDALCKMFEDFLSKKSAAPVTYDVSQVYEFLDKLSDVSMMIFNRETGQYIGRTRAWIKQQVYEMMRGRCQHPEGGEKVIVGY

In the data set “PID-3 full-length” the target is B2. Kind of data set: SEC. On the technique in general: Size exclusion chromatography separates by hydrodynamic size, large species first.
A further data set deals with T1, PID-1-mVenus-Strep. Put plainly: pull-down.
In data set [1] the target is T2, full-length TOST-1 (TOST-1^FL). Put plainly: ITC.
Another data set has as its target T3, ERH-2 I81A/R83A. Kind of data set: pull-down.
A further data set deals with T4, ERH-2 W87A. Kind of data set: pull-down.
A further data set addresses T5, TOFU-6 RRM. Put plainly: fluorescence anisotropy. Background: In fluorescence polarisation assays a small probe gives low polarisation when free and higher when bound to something large.
The data set “SEC-MALS” deals with the molecule itself. Kind of data set: SEC-MALS.
The next data set concerns the target T6, TOFU-6. Kind of data set: SEC-MALS.
For another data set, the system named is 21U RNA. Kind of data set: 21U RNA sequencing. The format is in vivo, C. elegans. The following applies: small RNA-seq, 20°C and 25°C, n = 3, versus wild type.
For data set [2], the system named is P granules (perinuclear foci). Put plainly: Subcellular localization by confocal microscopy. Type of data set: in vivo, C. elegans. Particulars: GFP-tagged PID-3, 25°C.
The target in a further data set is T7, PID-3/ERH-2 subcomplex. Kind of data set: pull-down.
The target in data set [3] is T2, full-length TOST-1 (TOST-1^FL). Put plainly: NMR titration.

What is called Kd is a measure of binding affinity in units of concentration. A lower Kd goes with tighter binding.

Changes are numbered by the printed parent chain. Numbers in names are those of the source. Entries after “also recorded” stand apart in the source; their conditions may differ.

With B1, the binding result with PID-3 full-length and with PID-1-mVenus-Strep was “binds” in each case. In addition, binding in data set [1] was characterised by a dissociation constant (Kd) of 13 µM.
As for TFDKVLFNSEDIKDSVFKVLHAEEEPRGADQEN (peptide, UniProt O76616 171-203, looked up) [GST-PID-3^pep], the binding result in the data set with ERH-2 I81A/R83A and with ERH-2 W87A was “binds” throughout.
UUUUUUUUUUUUUUUU (ssRNA) [Cy5-U16]: the Kd in the data set with TOFU-6 RRM is ~60 µM.
B2: the binding result in “SEC-MALS” and with TOFU-6 was “binds” throughout.
For the molecule B3, the “21U RNA levels” value in the data set on 21U RNA is given as “temperature-sensitive effect on overall 21U RNA levels; also recorded: affect all 21U RNA species”.
Regarding B4, in data set [2], the subcellular localization entry is “did not form perinuclear foci”.
For B5, the binding result with PID-3/ERH-2 subcomplex is on record as “binds”.
Take B6: in [3], the binding result is reported as “binds”.
